Experiment [1] deals with T1, HIV-1 NefSF2 (Δ1-44), C210A (HIV-1 SF2, UniProt P03407 45-210, C210A).
T1 construct: source: E. coli BL21(DE3), purified (Ni-NTA, Superdex 75)
Description: ITC. To be noted: both partners purified.

Experiment [2] addresses T2, HIV-1 NefSF2 wild type, full length (1-210), C210A (HIV-1 SF2, UniProt P03407, C210A).
T2 construct: source: E. coli BL21(DE3), purified (Ni-NTA, Superdex 75)
The experiment can be described thus: ITC. The settings on record: both partners purified.

B1: NI1-2, Hck-SH3 (78-138) with RT loop V90SWSPD (domain or fragment)
chain: not shown
notes: source: bacteria (pGEX-4T1 Tev vector), purified (GSH resin, Superdex 75)
Consider B1, for which, in experiment [1], the Kd – broadly, a measure of binding affinity in units of concentration – came to 179 ± 29 nM; the dH is -8.16 ± 0.07 kcal/mol; the stoichiometry N (in general, the number of molecules, sites or subunits per partner or assembly) stood at 0.99.

B2: NI1-3, Hck-SH3 (78-138) with RT loop Y90SPFSW (domain or fragment)
chain: SEDIIVVALYDYYSPFSWDLSFQKGDQMVVLEESGEWWKARSLATRKEGYIPSNYVARVDS
notes: as for B1
As to B2, in experiment [1], the Kd amounted to 48 ± 11 nM, the dH was -7.99 ± 0.07 kcal/mol and the “stoichiometry N” value turned out to be 0.95.

B3: GST-NI1-2, GST fusion of Hck-SH3 (78-138) with RT loop V90SWSPD (domain or fragment)
chain: not shown
notes: source: bacteria (pGEX-4T1 Tev vector), purified (GSH resin, Superdex 75); not shown: GST, N-terminal, kept
On to B3, for which, in experiment [2], binding was characterised by a dissociation constant (Kd) of 140 ± 6.7 nM, the dH is -8.9 ± 0.02 kcal/mol and the “stoichiometry N” value is 1.07.

Source of the values: publication PMC3098852, “Molecular Design, Functional Characterization and Structural Basis of a Protein Inhibitor Against the HIV-1 Pathogenicity Factor Nef” (PLoS ONE, 2011).
